Laboratory results taken from publication doi:10.1101/2025.06.05.658052 (bioRxiv, 2025).

Assays:
[1] = tested on: EppR (TetR-like error-prone polymerase regulator) (Acinetobacter baumannii ATCC 17978); experiment: EMSA
SEC = molecular target: the molecule itself; experiment: SEC

Molecule | Kd [1] | binding result (SEC)
recA regulatory region (promoter + 5'-UTR), 145 bp | 1100 nM | 
His-tagged A. baumannii RecA (natural protein, Acinetobacter baumannii, UniProt A3M645 1-349, looked up) MDENKSKALQAALSQIEKQFGKNTVMRLGDNTVQAVEAVSTGSLTLDIALGIGGLPKGRIIEIYGPESSGKTTMTLQAIAQCQKSGGTCAFIDAEHALDPQYARKLGVDIDNLLVSQPDNGEQALEIADMLVRSGAIDLIVVDSVAALTPKAEIEGEMGDSHMGLQARLMSQALRKITGNAKRSNCMVIFINQIRMKIGVMFGSPETTTGGNALKFYASVRLDIRRIGQVKEGDEIVGSETKVKVVKNKMAPPFKEAIFQILYGKGTNQLGELVDLAVQQDIVQKAGAWYSYQGNKIGQGKNNVIRYFEENTQIAEEIERNIREQLLTTGTNGAVQIEDEEEPDLLLES |  | binds
